T1: IFN-γ receptor (IFNGR1 and IFNGR2) (UniProt P15260 18-489; P38484 22-337, limits assumed)
T1 sequence (looked up) 1: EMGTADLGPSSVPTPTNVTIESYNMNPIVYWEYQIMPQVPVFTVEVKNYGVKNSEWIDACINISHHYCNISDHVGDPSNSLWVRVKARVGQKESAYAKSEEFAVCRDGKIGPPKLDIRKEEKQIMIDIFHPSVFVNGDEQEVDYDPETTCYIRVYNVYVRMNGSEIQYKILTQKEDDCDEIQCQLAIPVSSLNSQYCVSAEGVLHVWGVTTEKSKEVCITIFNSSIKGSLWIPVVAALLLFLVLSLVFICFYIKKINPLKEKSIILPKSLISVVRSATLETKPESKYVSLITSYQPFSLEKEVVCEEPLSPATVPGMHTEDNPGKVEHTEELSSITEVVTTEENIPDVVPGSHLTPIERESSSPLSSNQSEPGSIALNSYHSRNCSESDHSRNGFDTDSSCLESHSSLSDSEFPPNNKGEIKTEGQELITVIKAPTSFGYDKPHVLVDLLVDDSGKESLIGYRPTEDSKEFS
T1 sequence (looked up) 2: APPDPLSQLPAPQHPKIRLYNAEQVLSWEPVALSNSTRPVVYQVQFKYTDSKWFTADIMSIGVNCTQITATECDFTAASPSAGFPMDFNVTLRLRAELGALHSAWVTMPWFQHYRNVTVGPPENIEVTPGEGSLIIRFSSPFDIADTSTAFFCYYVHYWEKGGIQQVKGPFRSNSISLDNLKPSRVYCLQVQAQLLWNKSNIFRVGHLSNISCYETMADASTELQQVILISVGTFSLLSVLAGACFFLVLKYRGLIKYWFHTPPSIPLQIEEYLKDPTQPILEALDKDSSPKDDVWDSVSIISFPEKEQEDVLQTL


Key:
Experiment in all cases: cell-based or functional assay
[1] = target: human PD-1 on cells (HEK-PD-1 reporter cells; activated PBMC) (human, UniProt Q15116 25-288)
[2] = target: human IL-12 receptor complex (IL-12Rβ1 and IL-12Rβ2) (human, UniProt P42701 24-662; Q99665 24-862)
[3] = target: T1, IFN-γ receptor (IFNGR1 and IFNGR2)

Sequence of human PD-1 on cells (HEK-PD-1 reporter cells; activated PBMC) (Q15116 25-288): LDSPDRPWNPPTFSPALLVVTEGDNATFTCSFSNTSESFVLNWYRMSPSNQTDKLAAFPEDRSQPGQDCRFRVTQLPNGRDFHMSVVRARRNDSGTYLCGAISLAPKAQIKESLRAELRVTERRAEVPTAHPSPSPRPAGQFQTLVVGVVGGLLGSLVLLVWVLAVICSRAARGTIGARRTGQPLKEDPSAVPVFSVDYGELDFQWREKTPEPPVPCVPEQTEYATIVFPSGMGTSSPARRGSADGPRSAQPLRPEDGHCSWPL
Sequence of human IL-12 receptor complex (IL-12Rβ1 and IL-12Rβ2) (Q99665 24-862, chain 2 of 2, other chains not shown): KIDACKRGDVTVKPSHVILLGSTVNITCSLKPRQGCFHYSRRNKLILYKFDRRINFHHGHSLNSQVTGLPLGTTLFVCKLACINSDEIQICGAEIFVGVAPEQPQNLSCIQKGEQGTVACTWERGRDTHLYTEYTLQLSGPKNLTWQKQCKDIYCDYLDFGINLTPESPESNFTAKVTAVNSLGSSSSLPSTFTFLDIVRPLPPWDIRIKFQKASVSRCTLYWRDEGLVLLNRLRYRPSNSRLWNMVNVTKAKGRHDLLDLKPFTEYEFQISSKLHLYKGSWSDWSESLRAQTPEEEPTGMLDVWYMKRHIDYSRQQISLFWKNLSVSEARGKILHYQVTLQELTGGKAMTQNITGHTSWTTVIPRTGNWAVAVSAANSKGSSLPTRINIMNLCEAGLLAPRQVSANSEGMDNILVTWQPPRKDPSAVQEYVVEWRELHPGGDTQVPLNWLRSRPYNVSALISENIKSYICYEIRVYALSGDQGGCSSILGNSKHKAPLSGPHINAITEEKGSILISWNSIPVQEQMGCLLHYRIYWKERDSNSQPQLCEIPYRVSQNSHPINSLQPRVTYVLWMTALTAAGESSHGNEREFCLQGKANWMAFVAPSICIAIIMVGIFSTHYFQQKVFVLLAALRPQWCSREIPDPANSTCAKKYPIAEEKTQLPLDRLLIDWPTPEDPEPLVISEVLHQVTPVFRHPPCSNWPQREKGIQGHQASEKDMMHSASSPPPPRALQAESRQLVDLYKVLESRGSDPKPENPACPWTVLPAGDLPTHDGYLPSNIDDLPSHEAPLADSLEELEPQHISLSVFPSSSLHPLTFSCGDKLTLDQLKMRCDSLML

Row | IFN-γ signal transduction, HEK-IFN-γ-PD-1 [1] [%] | IL-12 signal transduction, HEK-IL-12-PD-1 [1] [%] | IL-12 signal transduction, HEK-IL-12 [2] [%] | IFN-γ signal transduction, HEK-IFN-γ [3] [%] | Binder
1 | 39 | 32 | < 0.2 | < 0.1 | IL-12(E59A/F60A)/IFN-γ(A23V/A23V)/PD-L1(mut2)-Fc (Fc fusion) chain 1: FTVTVPKDLYVVEYGSNMTIECKFPVEKQLDLAALQVYWMMEDKNIIQFVHGEEDLKVQHSSYRQRARLLKDQLSLGNAALQITDVKLQDAGVYTCLIAYKGADYKRITVKVNAPYNKINQRILVVDPVTSEHELTCQAEGYPKAEVIWTSSDHQVLSGKTTTTNSKREEKLFNVTSTLRINTTTNEIFYCTFRRLDPEENHTAELVIPELPLAHPPNERGGGGSGGGIWELKKDVYVVELDWYPDAPGEMVVLTCDTPEEDGITWTLDQSSEVLGSGKTLTIQVKAAGDAGQYTCHKGGEVLSHSLLLLHKKEDGIWSTDILKDQKEPKNKTFLRCEAKNYSGRFTCWWLTTISTDLTFSVKSSRGSSDPQGVTCGAATLSAERVRGDNKEYEYSVECQEDSACPAAEESLPIEVMVDAVHKLKYENYTSSFFIRDIIKPDPPKNLQLKPLKNSRQVEVSWEYPDTWSTPHSYFSLTFCVQVQGKSKREKKDRVFTDKTSATVICRKNASISVRAQDRYYSSSWSEWASVPCSGGGGSGGGSGGGGSRNLPVATPDPGMFPCLHHSQNLLRAVSNMLQKARQTLEFYPCTSEEIDHEDITKDKTSTVEACLPLELTKNESCLNSRETSFITNGSCLASRKTSFMMALCLSSIYEDLKMYQVEFKTMNAKLLMDPKRQIFLDQNMLAVIDELMQALNFNSETVPQKSSLEEPDFYKTKIKLCILLHAFRIRAVTIDRVMSYLNASGGGGSGGGDKTHTCPPCPAPEDEGGPSVFLFPPKPKDTLMISRTPEVTCVVVDVSHEDPEVKFNWYVDGVEVHNAKTKPREEQYNSTYRVVSVLTVLHQDWLNGKEYKCKVSNKALPAPIEKTISKAKGQPREPQVYVYPPSREEMTKNQVSLTCLVKGFYPSDIAVEWESNGQPENNYKTTPPVLDEDGSFALVSKLTVDKSRWQQGNVFSCSVMHEALHNHYTQKSLSLSPGK chain 2: FTVTVPKDLYVVEYGSNMTIECKFPVEKQLDLAALQVYWMMEDKNIIQFVHGEEDLKVQHSSYRQRARLLKDQLSLGNAALQITDVKLQDAGVYTCLIAYKGADYKRITVKVNAPYNKINQRILVVDPVTSEHELTCQAEGYPKAEVIWTSSDHQVLSGKTTTTNSKREEKLFNVTSTLRINTTTNEIFYCTFRRLDPEENHTAELVIPELPLAHPPNERGGGSGQDPYVKEAENLKKYFNAGHSDVVDNGTLFLGILKNWKEESDRKIMQSQIVSFYFKLFKNFKDDQSIQKSVETIKEDMNVKFFNSNKKKRDDFEKLTNYSVTDLNVQRKAIHELIQVMAELSPAAKTGKRKRSQMLFRGGGGSGGGGSGGGGSGGGGSQDPYVKEAENLKKYFNAGHSDVVDNGTLFLGILKNWKEESDRKIMQSQIVSFYFKLFKNFKDDQSIQKSVETIKEDMNVKFFNSNKKKRDDFEKLTNYSVTDLNVQRKAIHELIQVMAELSPAAKTGKRKRSQMLFRGGGGGSGGGDKTHTCPPCPAPEKKGGPSVFLFPPKPKDTLMISRTPEVTCVVVDVSHEDPEVKFNWYVDGVEVHNAKTKPREEQYNSTYRVVSVLTVLHQDWLNGKEYKCKVSNKALPAPIEKTISKAKGQPREPQVYVLPPSREEMTKNQVSLLCLVKGFYPSDIAVEWESNGQPENRYMTWPPVLDSDGSFFLYSKLTVDKSRWQQGNVFSCSVMHEALHNHYTQKSLSLSPGK
2 | 45 | 43 | < 0.2 | < 0.1 | IL-12(E59A/F60A)/IFN-γ(A23V/A23V)/PD-L1(mut7)-Fc (Fc fusion) chain 1: FTVTVPKDLYVVEYGSNMTIECKFPVEKQLDLAALQVYWMMEDKNIIQFVHGEEDLKVQHSSYRQRARLLKDQLSLGNAALQITDVKLQDAGVYTCLIAYGGADYKRITVKVNAPYNKINQRILVVDPVTSEHELTCQAEGYPKAEVIWTSSDHQVLSGKTTTTNSKREEKLFNVTSTLRINTTTNEIFYCTFRRLDPEENHTAELVIPELPLAHPPNERGGGGSGGGIWELKKDVYVVELDWYPDAPGEMVVLTCDTPEEDGITWTLDQSSEVLGSGKTLTIQVKAAGDAGQYTCHKGGEVLSHSLLLLHKKEDGIWSTDILKDQKEPKNKTFLRCEAKNYSGRFTCWWLTTISTDLTFSVKSSRGSSDPQGVTCGAATLSAERVRGDNKEYEYSVECQEDSACPAAEESLPIEVMVDAVHKLKYENYTSSFFIRDIIKPDPPKNLQLKPLKNSRQVEVSWEYPDTWSTPHSYFSLTFCVQVQGKSKREKKDRVFTDKTSATVICRKNASISVRAQDRYYSSSWSEWASVPCSGGGGSGGGSGGGGSRNLPVATPDPGMFPCLHHSQNLLRAVSNMLQKARQTLEFYPCTSEEIDHEDITKDKTSTVEACLPLELTKNESCLNSRETSFITNGSCLASRKTSFMMALCLSSIYEDLKMYQVEFKTMNAKLLMDPKRQIFLDQNMLAVIDELMQALNFNSETVPQKSSLEEPDFYKTKIKLCILLHAFRIRAVTIDRVMSYLNASGGGGSGGGDKTHTCPPCPAPEDEGGPSVFLFPPKPKDTLMISRTPEVTCVVVDVSHEDPEVKFNWYVDGVEVHNAKTKPREEQYNSTYRVVSVLTVLHQDWLNGKEYKCKVSNKALPAPIEKTISKAKGQPREPQVYVYPPSREEMTKNQVSLTCLVKGFYPSDIAVEWESNGQPENNYKTTPPVLDEDGSFALVSKLTVDKSRWQQGNVFSCSVMHEALHNHYTQKSLSLSPGK chain 2: FTVTVPKDLYVVEYGSNMTIECKFPVEKQLDLAALQVYWMMEDKNIIQFVHGEEDLKVQHSSYRQRARLLKDQLSLGNAALQITDVKLQDAGVYTCLIAYGGADYKRITVKVNAPYNKINQRILVVDPVTSEHELTCQAEGYPKAEVIWTSSDHQVLSGKTTTTNSKREEKLFNVTSTLRINTTTNEIFYCTFRRLDPEENHTAELVIPELPLAHPPNERGGGSGQDPYVKEAENLKKYFNAGHSDVVDNGTLFLGILKNWKEESDRKIMQSQIVSFYFKLFKNFKDDQSIQKSVETIKEDMNVKFFNSNKKKRDDFEKLTNYSVTDLNVQRKAIHELIQVMAELSPAAKTGKRKRSQMLFRGGGGSGGGGSGGGGSGGGGSQDPYVKEAENLKKYFNAGHSDVVDNGTLFLGILKNWKEESDRKIMQSQIVSFYFKLFKNFKDDQSIQKSVETIKEDMNVKFFNSNKKKRDDFEKLTNYSVTDLNVQRKAIHELIQVMAELSPAAKTGKRKRSQMLFRGGGGGSGGGDKTHTCPPCPAPEKKGGPSVFLFPPKPKDTLMISRTPEVTCVVVDVSHEDPEVKFNWYVDGVEVHNAKTKPREEQYNSTYRVVSVLTVLHQDWLNGKEYKCKVSNKALPAPIEKTISKAKGQPREPQVYVLPPSREEMTKNQVSLLCLVKGFYPSDIAVEWESNGQPENRYMTWPPVLDSDGSFFLYSKLTVDKSRWQQGNVFSCSVMHEALHNHYTQKSLSLSPGK
